Molecular target: T1, Recombinant MBP-mutCALR Type 1 fusion protein (human)
T1 construct: custom made at Cepter; also called recombinant mutCALR protein
Assay: SPR, IgG captured, 1:1 fit, Exp. 2
Procedure: Experiment 2: Recombinant MBP-mutCALR Type 1 fusion protein was custom made at Cepter (cepterbiopartners.com). Data for the interaction of antibodies with recombinant mutCALR protein were collected at 25° C. on a Biacore 8K instrument (Cytiva, Marlborough, Mass.), and all reagents were obtained from Cytiva unless otherwise specified. The experiments were conducted using Tris-buffered saline (pH 7.2), 0.005% Surfactant P20, 1 mM CaCl₂) as running buffer. To prepare the capture surfaces, anti-human IgG (Fc) antibodies (Product #29234600) was amine-coupled onto a CM4 chip (Product #BR100534) under standard conditions using an Amine Coupling Kit (Product #BR100050). […] The kinetics parameters were obtained by applying 1:1 binding model to fit the data from multiple-cycle injection experiments using Biacore Insight Evaluation software.

Row | Binder | Kd | koff | kon
1 | anti-mutCALR antibody clone 75 (antibody, human IgG1, lambda, N297A, V domains shown, human IgG1 N297A variant of clone 6) VH: EVQLVQSGAEVKKPGASVKVSCKVSGYTLTELSMQWVRQAPGKGLEWMGGFDPDDGETMYAEKFQGRLTVTEDTSTDTVYMELRSLTSEDTALYFCATSPGYDFFDYWGQGTLVTVSS VL: SYVLTQPPSVSVAPGKTARITCGGNNIGSKSVHWYQQKPGQAPVLVVYDDSDRPSGIPERFSGSNSGNTATLTISRVEAGDEADYYCQVWDSSNDLLIFGGGTKLTVLG | 0.637 nM | 0.0039 s⁻¹ | 6.12e+06 M⁻¹ s⁻¹
2 | anti-mutCALR antibody clone 76 (antibody, human IgG1, lambda, N297A, V domains shown, human IgG1 N297A variant of clone 6) VH: EVQLVQSGAEVKKPGASVKVSCKVSGYTLTELSMQWVRQAPGKGLEWMGGFDPDAGETMYAEKFQGRLTVTEDTSTDTVYMELRSLTSEDTALYFCATSPGYDFFDYWGQGTLVTVSS VL: SYVLTQPPSVSVAPGKTARITCGGNNIGSKSVHWYQQKPGQAPVLVVYDDSDRPSGIPERFSGSNSGNTATLTISRVEAGDEADYYCQVWDSSNDLLIFGGGTKLTVLG | 4.9 nM | 0.0155 s⁻¹ | 3.16e+06 M⁻¹ s⁻¹
3 | anti-mutCALR antibody clone 128 (antibody, human IgG1, lambda, N297A, V domains shown, human IgG1 N297A variant of clone 15) VH: EVQLVQSGAEVKKPGASVKVSCKVSGYTLTELSMQWVRQAPGKGLEWMGGFDPDDAETMYAEKFQGRLTVTEDTSTDTVYMELRSLTSEDTALYFCATSPGYDFFDYWGQGTLVTVSS VL: SYELTQPPSVSVAPGKTARITCGGDNIGSKSVHWYQQKPGQAPVLVVYDDSDRPSGIPERFSGSNSGNTATLTINRVEAGDEADYYCQVWDSSNDLLIFGGGTKLTVLG | 1.61 nM | 0.00207 s⁻¹ | 1.29e+06 M⁻¹ s⁻¹
4 | anti-mutCALR antibody clone 131 (antibody, human IgG1, lambda, N297A, V domains shown, human IgG1 N297A variant of clone 15) VH: EVQLVQSGAEVKKPGASVKVSCKVSGYTLTELSMQWVRQAPGKGLEWMGGFDPDSGETMYAEKFQGRLTVTEDTSTDTVYMELSSLRSEDTAVYFCATSPGYDFFDYWGQGTLVTVSS VL: SYELTQPPSVSVAPGKTARITCGGDNIGSKSVHWYQQKPGQAPVLVVYDDSDRPSGIPERFSGSNSGNTATLTINRVEAGDEADYYCQVWDSSNDLLIFGGGTKLTVLG | 4.83 nM | 0.00481 s⁻¹ | 996000 M⁻¹ s⁻¹
5 | anti-mutCALR antibody clone 129 (antibody, human IgG1, lambda, N297A, V domains shown, human IgG1 N297A variant of clone 15) VH: EVQLVQSGAEVKKPGASVKVSCKVSGYTLTELSMQWVRQAPGKGLEWMGGFDPDDGETMYAEKFQGRLTVTEDTSTDTVYMELSSLRSEDTAVYFCATSPGYDFFDYWGQGTLVTVSS VL: SYELTQPPSVSVAPGKTARITCGGDNIGSKSVHWYQQKPGQAPVLVVYDDSDRPSGIPERFSGSNSGNTATLTINRVEAGDEADYYCQVWDSSNDLLIFGGGTKLTVLG | 0.53 nM | 0.00527 s⁻¹ | 9.94e+06 M⁻¹ s⁻¹
6 | anti-mutCALR antibody clone 133 (antibody, human IgG1, lambda, N297A, V domains shown, human IgG1 N297A variant of clone 15) VH: EVQLVQSGAEVKKPGASVKVSCKVSGYTLTELSMQWVRQAPGKGLEWMGGFDPDDAETMYAEKFQGRLTVTEDTSTDTVYMELSSLRSEDTAVYFCATSPGYDFFDYWGQGTLVTVSS VL: SYELTQPPSVSVAPGKTARITCGGDNIGSKSVHWYQQKPGQAPVLVVYDDSDRPSGIPERFSGSNSGNTATLTINRVEAGDEADYYCQVWDSSNDLLIFGGGTKLTVLG | 0.826 nM | 0.00702 s⁻¹ | 8.51e+06 M⁻¹ s⁻¹
7 | anti-mutCALR antibody clone 130 (antibody, human IgG1, lambda, N297A, V domains shown, human IgG1 N297A variant of clone 15) VH: EVQLVQSGAEVKKPGASVKVSCKVSGYTLTELSMQWVRQAPGKGLEWMGGFDPDAGETMYAEKFQGRLTVTEDTSTDTVYMELSSLRSEDTAVYFCATSPGYDFFDYWGQGTLVTVSS VL: SYELTQPPSVSVAPGKTARITCGGDNIGSKSVHWYQQKPGQAPVLVVYDDSDRPSGIPERFSGSNSGNTATLTINRVEAGDEADYYCQVWDSSNDLLIFGGGTKLTVLG | 4.71 nM | 0.00509 s⁻¹ | 1.08e+06 M⁻¹ s⁻¹
8 | anti-mutCALR antibody clone 78 (antibody, human IgG1, lambda, N297A, V domains shown, human IgG1 N297A variant of clone 6) VH: EVQLVQSGAEVKKPGASVKVSCKVSGYTLTELSMQWVRQAPGKGLEWMGGFDPDEGETMYAEKFQGRLTVTEDTSTDTVYMELRSLTSEDTALYFCATSPGYDFFDYWGQGTLVTVSS VL: SYVLTQPPSVSVAPGKTARITCGGNNIGSKSVHWYQQKPGQAPVLVVYDDSDRPSGIPERFSGSNSGNTATLTISRVEAGDEADYYCQVWDSSNDLLIFGGGTKLTVLG | 2.75 nM | 0.0024 s⁻¹ | 873000 M⁻¹ s⁻¹
9 | anti-mutCALR antibody clone 126 (antibody, human IgG1, lambda, N297A, V domains shown, human IgG1 N297A variant of clone 15) VH: EVQLVQSGAEVKKPGASVKVSCKVSGYTLTELSMQWVRQAPGKGLEWMGGFDPDSGETMYAEKFQGRLTVTEDTSTDTVYMELRSLTSEDTALYFCATSPGYDFFDYWGQGTLVTVSS VL: SYELTQPPSVSVAPGKTARITCGGDNIGSKSVHWYQQKPGQAPVLVVYDDSDRPSGIPERFSGSNSGNTATLTINRVEAGDEADYYCQVWDSSNDLLIFGGGTKLTVLG | 1.19 nM | 0.00153 s⁻¹ | 1.29e+06 M⁻¹ s⁻¹
10 | anti-mutCALR antibody clone 77 (antibody, human IgG1, lambda, N297A, V domains shown, human IgG1 N297A variant of clone 6) VH: EVQLVQSGAEVKKPGASVKVSCKVSGYTLTELSMQWVRQAPGKGLEWMGGFDPDSGETMYAEKFQGRLTVTEDTSTDTVYMELRSLTSEDTALYFCATSPGYDFFDYWGQGTLVTVSS VL: SYVLTQPPSVSVAPGKTARITCGGNNIGSKSVHWYQQKPGQAPVLVVYDDSDRPSGIPERFSGSNSGNTATLTISRVEAGDEADYYCQVWDSSNDLLIFGGGTKLTVLG | 5.61 nM | 0.0175 s⁻¹ | 3.13e+06 M⁻¹ s⁻¹
11 | anti-mutCALR antibody clone 79 (antibody, human IgG1, lambda, N297A, V domains shown, human IgG1 N297A variant of clone 6) VH: EVQLVQSGAEVKKPGASVKVSCKVSGYTLTELSMQWVRQAPGKGLEWMGGFDPDDAETMYAEKFQGRLTVTEDTSTDTVYMELRSLTSEDTALYFCATSPGYDFFDYWGQGTLVTVSS VL: SYVLTQPPSVSVAPGKTARITCGGNNIGSKSVHWYQQKPGQAPVLVVYDDSDRPSGIPERFSGSNSGNTATLTISRVEAGDEADYYCQVWDSSNDLLIFGGGTKLTVLG | 1.39 nM | 0.00631 s⁻¹ | 4.53e+06 M⁻¹ s⁻¹
12 | anti-mutCALR antibody clone 125 (antibody, human IgG1, lambda, N297A, V domains shown, human IgG1 N297A variant of clone 15) VH: EVQLVQSGAEVKKPGASVKVSCKVSGYTLTELSMQWVRQAPGKGLEWMGGFDPDAGETMYAEKFQGRLTVTEDTSTDTVYMELRSLTSEDTALYFCATSPGYDFFDYWGQGTLVTVSS VL: SYELTQPPSVSVAPGKTARITCGGDNIGSKSVHWYQQKPGQAPVLVVYDDSDRPSGIPERFSGSNSGNTATLTINRVEAGDEADYYCQVWDSSNDLLIFGGGTKLTVLG | 4.76 nM | 0.0154 s⁻¹ | 3.23e+06 M⁻¹ s⁻¹
13 | anti-mutCALR antibody clone 80 (antibody, human IgG1, lambda, N297A, V domains shown, human IgG1 N297A variant of clone 6) VH: EVQLVQSGAEVKKPGASVKVSCKVSGYTLTELSMQWVRQAPGKGLEWMGGFDPDDGETMYAEKFQGRLTVTEDTSTDTVYMELSSLRSEDTAVYFCATSPGYDFFDYWGQGTLVTVSS VL: SYVLTQPPSVSVAPGKTARITCGGNNIGSKSVHWYQQKPGQAPVLVVYDDSDRPSGIPERFSGSNSGNTATLTISRVEAGDEADYYCQVWDSSNDLLIFGGGTKLTVLG | 0.638 nM | 0.00248 s⁻¹ | 
14 | anti-mutCALR antibody clone 124 (antibody, human IgG1, lambda, N297A, human IgG1 N297A variant of clone 15) heavy: not shown light: SYELTQPPSVSVAPGKTARITCGGDNIGSKSVHWYQQKPGQAPVLVVYDDSDRPSGIPERFSGSNSGNTATLTINRVEAGDEADYYCQVWDSSNDLLIFGGGTKLTVLGQPKAAPSVTLFPPSSEELQANKATLVCLISDFYPGAVTVAWKADSSPVKAGVETTTPSKQSNNKYAASSYLSLTPEQWKSHRSYSCQVTHEGSTVEKTVAPTECS | 1.04 nM | 0.00128 s⁻¹ | 1.23e+06 M⁻¹ s⁻¹
15 | anti-mutCALR antibody clone 132 (antibody, human IgG1, lambda, N297A, V domains shown, human IgG1 N297A variant of clone 15) VH: EVQLVQSGAEVKKPGASVKVSCKVSGYTLTELSMQWVRQAPGKGLEWMGGFDPDEGETMYAEKFQGRLTVTEDTSTDTVYMELSSLRSEDTAVYFCATSPGYDFFDYWGQGTLVTVSS VL: SYELTQPPSVSVAPGKTARITCGGDNIGSKSVHWYQQKPGQAPVLVVYDDSDRPSGIPERFSGSNSGNTATLTINRVEAGDEADYYCQVWDSSNDLLIFGGGTKLTVLG | 2.16 nM | 0.00244 s⁻¹ | 1.13e+06 M⁻¹ s⁻¹
16 | anti-mutCALR antibody clone 82 (antibody, human IgG1, lambda, N297A, V domains shown, human IgG1 N297A variant of clone 6) VH: EVQLVQSGAEVKKPGASVKVSCKVSGYTLTELSMQWVRQAPGKGLEWMGGFDPDSGETMYAEKFQGRLTVTEDTSTDTVYMELSSLRSEDTAVYFCATSPGYDFFDYWGQGTLVTVSS VL: SYVLTQPPSVSVAPGKTARITCGGNNIGSKSVHWYQQKPGQAPVLVVYDDSDRPSGIPERFSGSNSGNTATLTISRVEAGDEADYYCQVWDSSNDLLIFGGGTKLTVLG | 6.23 nM | 0.00475 s⁻¹ | 762000 M⁻¹ s⁻¹
17 | anti-mutCALR antibody clone 83 (antibody, human IgG1, lambda, N297A, V domains shown, human IgG1 N297A variant of clone 6) VH: EVQLVQSGAEVKKPGASVKVSCKVSGYTLTELSMQWVRQAPGKGLEWMGGFDPDEGETMYAEKFQGRLTVTEDTSTDTVYMELSSLRSEDTAVYFCATSPGYDFFDYWGQGTLVTVSS VL: SYVLTQPPSVSVAPGKTARITCGGNNIGSKSVHWYQQKPGQAPVLVVYDDSDRPSGIPERFSGSNSGNTATLTISRVEAGDEADYYCQVWDSSNDLLIFGGGTKLTVLG | 1.76 nM | 0.00992 s⁻¹ | 5.62e+06 M⁻¹ s⁻¹
18 | anti-mutCALR antibody clone 81 (antibody, human IgG1, lambda, N297A, V domains shown, human IgG1 N297A variant of clone 6) VH: EVQLVQSGAEVKKPGASVKVSCKVSGYTLTELSMQWVRQAPGKGLEWMGGFDPDAGETMYAEKFQGRLTVTEDTSTDTVYMELSSLRSEDTAVYFCATSPGYDFFDYWGQGTLVTVSS VL: SYVLTQPPSVSVAPGKTARITCGGNNIGSKSVHWYQQKPGQAPVLVVYDDSDRPSGIPERFSGSNSGNTATLTISRVEAGDEADYYCQVWDSSNDLLIFGGGTKLTVLG | 6.62 nM | 0.00494 s⁻¹ | 746000 M⁻¹ s⁻¹
19 | anti-mutCALR antibody clone 84 (antibody, human IgG1, lambda, N297A, V domains shown, human IgG1 N297A variant of clone 6) VH: EVQLVQSGAEVKKPGASVKVSCKVSGYTLTELSMQWVRQAPGKGLEWMGGFDPDDAETMYAEKFQGRLTVTEDTSTDTVYMELSSLRSEDTAVYFCATSPGYDFFDYWGQGTLVTVSS VL: SYVLTQPPSVSVAPGKTARITCGGNNIGSKSVHWYQQKPGQAPVLVVYDDSDRPSGIPERFSGSNSGNTATLTISRVEAGDEADYYCQVWDSSNDLLIFGGGTKLTVLG | 2.01 nM | 0.0018 s⁻¹ | 892000 M⁻¹ s⁻¹

Source: patent US20230272055A1 (Incyte, published 2023)
